# Source: the Immune Epitope Database (IEDB)
# Experiments:
# HLA-B*18:01 = test: IEDB peptide-MHC binding, purified MHC/direct/fluorescence; filed as Kd, often an IC50 or EC50 that approximates it; ≥ and ≤ were set here for values at or beyond the usual limits of such assays
# HLA-B*44:02 = test: as above
# HLA-B*44:03 = test: IEDB peptide-MHC binding, purified MHC/competitive/radioactivity; filed as Kd, often an IC50 or EC50 that approximates it; ≥ and ≤ were set here for values at or beyond the usual limits of such assays; conditions: source organism: Dengue virus 1 Brazil/97-11/1997
# HLA-B*51:01 = test: as above
# HLA-A*01:01 [1] = test: as above
# HLA-A*26:01 = test: as above
# HLA-A*30:01 = test: as above
# HLA-A*30:02 = test: as above
# HLA-A*68:02 = test: as above
# HLA-A*68:01 = test: as above; conditions: source organism: Mammarenavirus choriomeningitidis
# HLA-A*33:01 = test: as above; conditions: source organism: Mammarenavirus choriomeningitidis
# HLA-A*03:01 [2] = test: as above; conditions: source organism: Mammarenavirus choriomeningitidis
# HLA-A*31:01 [3] = test: as above; conditions: source organism: Mammarenavirus choriomeningitidis
# HLA-A*03:01 [4] = test: IEDB peptide-MHC binding, purified MHC/direct/fluorescence; filed as Kd, often an IC50 or EC50 that approximates it; ≥ and ≤ were set here for values at or beyond the usual limits of such assays
# HLA-A*31:01 [5] = test: as above; conditions: source organism: Entamoeba histolytica HM-1:IMSS
# HLA-A*32:01 = test: IEDB peptide-MHC binding, purified MHC/competitive/radioactivity; filed as Kd, often an IC50 or EC50 that approximates it; ≥ and ≤ were set here for values at or beyond the usual limits of such assays
# HLA-A*29:02 = test: as above
# HLA-B*58:01 = test: IEDB peptide-MHC binding, purified MHC/direct/fluorescence; filed as Kd, often an IC50 or EC50 that approximates it; ≥ and ≤ were set here for values at or beyond the usual limits of such assays
# HLA-B*57:01 = test: as above; conditions: source organism: Giardia lamblia ATCC 50803
# HLA-B*53:01 = test: IEDB peptide-MHC binding, purified MHC/competitive/radioactivity; filed as Kd, often an IC50 or EC50 that approximates it; ≥ and ≤ were set here for values at or beyond the usual limits of such assays
# HLA-B*40:01 = test: IEDB peptide-MHC binding, purified MHC/direct/fluorescence; filed as Kd, often an IC50 or EC50 that approximates it; ≥ and ≤ were set here for values at or beyond the usual limits of such assays; conditions: source organism: Escherichia coli O157:H7
# HLA-A*01:01 [6] = test: as above; conditions: source organism: Escherichia coli O157:H7
# HLA-B*27:05 = test: as above; conditions: source organism: Escherichia coli O157:H7
# HLA-A*02:01 = test: as above; conditions: source organism: Escherichia coli O157:H7
# HLA-B*07:02 = test: as above; conditions: source organism: Escherichia coli O157:H7
# HLA-B*15:01 = test: as above; conditions: source organism: Escherichia coli O157:H7
# HLA-B*08:01 [7] = test: IEDB peptide-MHC binding, purified MHC/competitive/radioactivity; filed as Kd, often an IC50 or EC50 that approximates it; ≥ and ≤ were set here for values at or beyond the usual limits of such assays
# HLA-B*08:01 [8] = test: IEDB peptide-MHC binding, purified MHC/direct/fluorescence; filed as Kd, often an IC50 or EC50 that approximates it; ≥ and ≤ were set here for values at or beyond the usual limits of such assays; conditions: source organism: Coxiella burnetii Q321
# [9] = source organism: Dengue virus 1 Singapore/S275/1990
# [10] = source organism: Dengue virus 3 Martinique/1243/1999
# [11] = source organism: Dengue virus 4 Philippines/H241/1956
# [12] = source organism: Mammarenavirus juninense
# [13] = source organism: Mammarenavirus brazilense
# [14] = source organism: Dengue virus 2 Jamaica/1409/1983
# [15] = source organism: West Nile virus
# [16] = source organism: Dengue virus 2 Peru/IQT2913/1996
# [17] = source organism: Vaccinia virus WR
# [18] = source organism: Escherichia coli O157:H7
sequence,measurement,setting,value
LEFFLMVLL,Kd,HLA-B*18:01; [9],189 nM
same,Kd,HLA-B*44:02; [9],≥ 20000 nM
same,Kd,HLA-B*44:03,15600 nM
LGLMALKLI,Kd,HLA-B*51:01; [10],8370 nM
LPLPWTSGAT,Kd,HLA-B*51:01; [10],≥ 21400 nM
LTEIASLPTY,Kd,HLA-A*01:01 [1]; [11],1.39 nM
same,Kd,HLA-A*26:01; [11],899 nM
same,Kd,HLA-A*30:01; [11],9340 nM
same,Kd,HLA-A*30:02; [11],226 nM
LVMLLVHYA,Kd,HLA-A*68:02; [11],369 nM
LVSFLLLAGR,Kd,HLA-A*68:01,36.4 nM
same,Kd,HLA-A*33:01,151 nM
same,Kd,HLA-A*30:01; source organism: Mammarenavirus choriomeningitidis,9510 nM
same,Kd,HLA-A*03:01 [2],803 nM
same,Kd,HLA-A*31:01 [3],9.28 nM
LWNFIHQQR,Kd,HLA-A*03:01 [4]; source organism: Entamoeba histolytica HM-1:IMSS,≥ 20000 nM
same,Kd,HLA-A*31:01 [5],12.2 nM
LYDVIPVTY,Kd,HLA-A*01:01 [1]; [12],145 nM
same,Kd,HLA-A*32:01; [12],≥ 77800 nM
same,Kd,HLA-A*29:02; [12],375 nM
same,Kd,HLA-A*26:01; [12],≥ 77900 nM
same,Kd,HLA-A*30:01; [12],≥ 78100 nM
same,Kd,HLA-A*30:02; [12],4200 nM
MAVLFVVTLI,Kd,HLA-A*68:02; [11],533 nM
MIDNQKLSY,Kd,HLA-A*01:01 [1]; [13],9.61 nM
same,Kd,HLA-A*32:01; [13],≥ 61200 nM
same,Kd,HLA-A*29:02; [13],106 nM
same,Kd,HLA-A*26:01; [13],≥ 34700 nM
same,Kd,HLA-A*30:01; [13],≥ 34600 nM
same,Kd,HLA-A*30:02; [13],843 nM
MVSILASSLL,Kd,HLA-A*68:02; [14],44.7 nM
NEVEVITKL,Kd,HLA-B*18:01; [15],6.3 nM
NPHLPEKKI,Kd,HLA-B*51:01; [10],≥ 28800 nM
PTAPSDGGM,Kd,HLA-B*58:01; source organism: Giardia lamblia ATCC 50803,9000 nM
same,Kd,HLA-B*57:01,≥ 20000 nM
QPESNILDI,Kd,HLA-B*51:01; [16],≥ 46400 nM
same,Kd,HLA-B*53:01; [16],1010 nM
QYIFTGQPLN,Kd,HLA-A*30:01; [10],8840 nM
RADRVIDPRR,Kd,HLA-A*30:01; source organism: Dengue virus 1 Brazil/97-11/1997,1930 nM
RARISQGAG,Kd,HLA-A*30:01; [14],126 nM
REDIWCGSL,Kd,HLA-B*18:01; [15],7080 nM
RTKIPLSKV,Kd,HLA-A*30:01; [17],4.13 nM
RTRNALDNL,Kd,HLA-A*30:01; [10],3.33 nM
SMYQLMITI,Kd,HLA-B*40:01,≥ 10000 nM
same,Kd,HLA-B*58:01; [18],≥ 20000 nM
same,Kd,HLA-A*01:01 [6],≥ 20000 nM
same,Kd,HLA-B*44:02; [18],≥ 20000 nM
same,Kd,HLA-B*27:05,≥ 20000 nM
same,Kd,HLA-A*02:01,827 nM
same,Kd,HLA-B*07:02,≥ 20000 nM
same,Kd,HLA-A*03:01 [4]; [18],≥ 20000 nM
same,Kd,HLA-B*15:01,≥ 20000 nM
SPCKIPFEI,Kd,HLA-B*51:01; [14],≥ 47700 nM
same,Kd,HLA-B*53:01; [14],1280 nM
SSAAQRRGRI,Kd,HLA-A*68:02; [14],51 nM
TFIRSTMPLV,Kd,HLA-A*30:01; [11],257 nM
TTHFQRALI,Kd,HLA-A*68:02; [14],1.3 nM
TTRNGEPHM,Kd,HLA-A*30:01; [14],1200 nM
TVAWRTATLI,Kd,HLA-A*68:02; [10],61.5 nM
VAFLRFLTI,Kd,HLA-B*51:01; [14],1.89 nM
same,Kd,HLA-B*08:01 [7]; [14],10.4 nM
VEAGLIDTY,Kd,HLA-B*18:01; source organism: Vibrio vulnificus YJ016,≥ 20000 nM
VRQMEGEGVL,Kd,HLA-B*08:01 [7]; source organism: Dengue virus 3 Sri Lanka/1266/2000,1710 nM
WTMKILIGVI,Kd,HLA-A*68:02; [14],184 nM
YLKAKREKL,Kd,HLA-B*08:01 [8],143 nM
YNKQSLVSL,Kd,HLA-B*08:01 [7]; [17],30.1 nM
YSAPSESEGV,Kd,HLA-A*68:02; source organism: Dengue virus 4 Dominica/814669/1981,12.2 nM
